From PMC10234635 come the findings set out here.

This assay addresses recombinant mouse CD47 antigen (mouse) (UniProt Q61735). Nature of the assay: SPR. For orientation: Surface plasmon resonance follows binding to a sensor surface in real time, without labels.
UniProt Q61735, sequence (Q61735 19-303): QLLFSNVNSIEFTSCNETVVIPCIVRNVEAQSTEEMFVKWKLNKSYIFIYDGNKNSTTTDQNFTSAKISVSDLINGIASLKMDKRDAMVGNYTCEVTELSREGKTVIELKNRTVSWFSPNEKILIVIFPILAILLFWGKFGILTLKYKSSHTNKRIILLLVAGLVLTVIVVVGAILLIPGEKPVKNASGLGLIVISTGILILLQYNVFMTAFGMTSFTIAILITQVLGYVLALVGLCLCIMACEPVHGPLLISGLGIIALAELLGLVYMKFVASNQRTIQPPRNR

B1: anti–CTLA-4×SIRPα heterodimer (bispecific antibody, V domains shown)
VH: QVKLEESGPGLVNPSQSLSLSCSVTGYSITSGYGWNWIRQFPGQKVEWMGFIYYEGSTYYNPSIKSRISITRDTSKNQFFLQVNSVTTEDTATYYCARQTGYFDYWGQGTMVTVSS
VL: DVMMTQSPSSMSVSAGEKATISCKSSQSLFNSNAKTNYLNWYMQKPGQSPKLLTYYASTRHTGVPDRFRGSGSGTDFTLTISSVQDEDQAFYYCQQWYDYPYTFGAGTKLEIK
As to B1, the fold lower affinity than its affinity to CTLA-4 was 10 fold and the fold reduction in affinity against SIRPα-Fc was 5 fold.
